Data published in paper PMC6739602, “Intestinal Gel-Forming Mucins Polymerize by Disulfide-Mediated Dimerization of D3 Domains” (Journal of Molecular Biology, 2019).

Key:
[1] = target: the molecule itself; assay: SEC-MALS; Superose 6 10/300 column, 0.5 ml/min, 10 mM Tris (pH 7.4), 20 mM NaCl, 0.02% sodium azide
[2] = target: the molecule itself; assay: SEC-MALS; Superdex 200 Increase 10/300 column, 0.5 ml/min, 25 mM Hepes (pH 7.4), 250 mM NaCl, 0.02% sodium azide

B1: D1D2D3, mucin 2 recombinant protein spanning residues 21 to 1259 (domain or fragment, human, UniProt Q02817 21-1259, looked up)
chain: SELQTEGRTRNHGHNVCSTWGNFHYKTFDGDVFRFPGLCDYNFASDCRGSYKEFAVHLKRGPGQAEAPAGVESILLTIKDDTIYLTRHLAVLNGAVVSTPHYSPGLLIEKSDAYTKVYSRAGLTLMWNREDALMLELDTKFRNHTCGLCGDYNGLQSYSEFLSDGVLFSPLEFGNMQKINQPDVVCEDPEEEVAPASCSEHRAECERLLTAEAFADCQDLVPLEPYLRACQQDRCRCPGGDTCVCSTVAEFSRQCSHAGGRPGNWRTATLCPKTCPGNLVYLESGSPCMDTCSHLEVSSLCEEHRMDGCFCPEGTVYDDIGDSGCVPVSQCHCRLHGHLYTPGQEITNDCEQCVCNAGRWVCKDLPCPGTCALEGGSHITTFDGKTYTFHGDCYYVLAKGDHNDSYALLGELAPCGSTDKQTCLKTVVLLADKKKNVVVFKSDGSVLLNELQVNLPHVTASFSVFRPSSYHIMVSMAIGVRLQVQLAPVMQLFVTLDQASQGQVQGLCGNFNGLEGDDFKTASGLVEATGAGFANTWKAQSSCHDKLDWLDDPCSLNIESANYAEHWCSLLKKTETPFGRCHSAVDPAEYYKRCKYDTCNCQNNEDCLCAALSSYARACTAKGVMLWGWREHVCNKDVGSCPNSQVFLYNLTTCQQTCRSLSEADSHCLEGFAPVDGCGCPDHTFLDEKGRCVPLAKCSCYHRGLYLEAGDVVVRQEERCVCRDGRLHCRQIRLIGQSCTAPKIHMDCSNLTALATSKPRALSCQTLAAGYYHTECVSGCVCPDGLMDDGRGGCVVEKECPCVHNNDLYSSGAKIKVDCNTCTCKRGRWVCTQAVCHGTCSIYGSGHYITFDGKYYDFDGHCSYVAVQDYCGQNSSLGSFSIITENVPCGTTGVTCSKAIKIFMGRTELKLEDKHRVVIQRDEGHHVAYTTREVGQYLVVESSTGIIVIWDKRTTVFIKLAPSYKGTVCGLCGNFDHRSNNDFTTRDHMVVSSELDFGNSWKEAPTCPDVSTNPEPCSLNPHRRSWAEKQCSILKSSVFSICHSKVDPKPFYEACVHDSCSCDTGGDCECFCSAVASYAQECTKEGACVFWRTPDLCPIFCDYYNPPHECEWHYEPCGNRSFETCRTINGIHSNISVSYLEGCYPRCPKDRPIYEEDLKKCVTADKCGCYVEDTHYPPGASVPTEETCKSCVCTNSSQVVCRPEEGKILNQTQDGAFCYWEICGPNGTVEKHFNICSIT
notes: mucin 2 (MUC2), human, Uniprot Q02817, residues 21 to 1259; Probably made with the same QSOX1 signal peptide as MUC2D3, which would leave Ala-Pro at the N-terminus; also called MUC2 D1D2D3; source: HEK293F, produced and purified essentially as for MUC2D3 (no kifunensine; preparative gel filtration in 10 mM Hepes pH 7.5, 20 mM NaCl); not shown: His6, C-terminal, kept
Question: With B1 as the protein, how does the “stoichiometry N” value [1] read?
Answer: Its value is 2.

B2: MUC2D3, mucin 2 recombinant protein spanning residues 858 to 1259 (domain or fragment)
chain: APGTCSIYGSGHYITFDGKYYDFDGHCSYVAVQDYCGQNSSLGSFSIITENVPCGTTGVTCSKAIKIFMGRTELKLEDKHRVVIQRDEGHHVAYTTREVGQYLVVESSTGIIVIWDKRTTVFIKLAPSYKGTVCGLCGNFDHRSNNDFTTRDHMVVSSELDFGNSWKEAPTCPDVSTNPEPCSLNPHRRSWAEKQCSILKSSVFSICHSKVDPKPFYEACVHDSCSCDTGGDCECFCSAVASYAQECTKEGACVFWRTPDLCPIFCDYYNPPHECEWHYEPCGNRSFETCRTINGIHSNISVSYLEGCYPRCPKDRPIYEEDLKKCVTADKCGCYVEDTHYPPGASVPTEETCKSCVCTNSSQVVCRPEEGKILNQTQDGAFCYWEICGPNGTVEKHFNICSIT
modifications: N-linked glycans (six potential N-linked glycosylation sites); for the crystals endoH-treated to leave only a monosaccharide at glycosylated asparagines; intersubunit disulfides C1088-C1088 and C1130-C1130
notes: cleavage is predicted to occur between the two adjacent alanines; mucin 2 (MUC2), human, Uniprot Q02817, residues 858 to 1259 (VWD3, C8-3, TIL-3 and E-3 domains); Expressed in pcDNA3.1 downstream of the QSOX1 signal peptide; kifunensine/EndoH-treated protein gave the crystals of the solved structure; Disulfide-linked homodimer; also called mucin 2 multimerization module; MUC2 region spanning the …
Question: Which “stoichiometry N” value [2] does the source give for B2 here?
Answer: Its value is 2.

B3: D1D2D3CysD1, mucin 2 recombinant protein spanning residues 21 to 1397 (domain or fragment, human, UniProt Q02817 21-1397, looked up)
chain: SELQTEGRTRNHGHNVCSTWGNFHYKTFDGDVFRFPGLCDYNFASDCRGSYKEFAVHLKRGPGQAEAPAGVESILLTIKDDTIYLTRHLAVLNGAVVSTPHYSPGLLIEKSDAYTKVYSRAGLTLMWNREDALMLELDTKFRNHTCGLCGDYNGLQSYSEFLSDGVLFSPLEFGNMQKINQPDVVCEDPEEEVAPASCSEHRAECERLLTAEAFADCQDLVPLEPYLRACQQDRCRCPGGDTCVCSTVAEFSRQCSHAGGRPGNWRTATLCPKTCPGNLVYLESGSPCMDTCSHLEVSSLCEEHRMDGCFCPEGTVYDDIGDSGCVPVSQCHCRLHGHLYTPGQEITNDCEQCVCNAGRWVCKDLPCPGTCALEGGSHITTFDGKTYTFHGDCYYVLAKGDHNDSYALLGELAPCGSTDKQTCLKTVVLLADKKKNVVVFKSDGSVLLNELQVNLPHVTASFSVFRPSSYHIMVSMAIGVRLQVQLAPVMQLFVTLDQASQGQVQGLCGNFNGLEGDDFKTASGLVEATGAGFANTWKAQSSCHDKLDWLDDPCSLNIESANYAEHWCSLLKKTETPFGRCHSAVDPAEYYKRCKYDTCNCQNNEDCLCAALSSYARACTAKGVMLWGWREHVCNKDVGSCPNSQVFLYNLTTCQQTCRSLSEADSHCLEGFAPVDGCGCPDHTFLDEKGRCVPLAKCSCYHRGLYLEAGDVVVRQEERCVCRDGRLHCRQIRLIGQSCTAPKIHMDCSNLTALATSKPRALSCQTLAAGYYHTECVSGCVCPDGLMDDGRGGCVVEKECPCVHNNDLYSSGAKIKVDCNTCTCKRGRWVCTQAVCHGTCSIYGSGHYITFDGKYYDFDGHCSYVAVQDYCGQNSSLGSFSIITENVPCGTTGVTCSKAIKIFMGRTELKLEDKHRVVIQRDEGHHVAYTTREVGQYLVVESSTGIIVIWDKRTTVFIKLAPSYKGTVCGLCGNFDHRSNNDFTTRDHMVVSSELDFGNSWKEAPTCPDVSTNPEPCSLNPHRRSWAEKQCSILKSSVFSICHSKVDPKPFYEACVHDSCSCDTGGDCECFCSAVASYAQECTKEGACVFWRTPDLCPIFCDYYNPPHECEWHYEPCGNRSFETCRTINGIHSNISVSYLEGCYPRCPKDRPIYEEDLKKCVTADKCGCYVEDTHYPPGASVPTEETCKSCVCTNSSQVVCRPEEGKILNQTQDGAFCYWEICGPNGTVEKHFNICSITTRPSTLTTFTTITLPTTPTTFTTTTTTTTPTSSTVLSTTPKLCCLWSDWINEDHPSSGSDDGDRETFDGVCGAPEDIECRSVKDPHLSLEQLGQKVQCDVSVGFICKNEDQFGNGPFGLCYDYKIRVNCCWPMDKCIT
notes: mucin 2 (MUC2), human, Uniprot Q02817, residues 21 to 1397 (includes the CysD1 domain following a short threonine-rich segment); Probably made with the same QSOX1 signal peptide as MUC2D3, which would leave Ala-Pro at the N-terminus; also called the largest fragment; source: HEK293F, produced and purified essentially as for MUC2D3 (no kifunensine; preparative gel filtration in 10 mM Hepes pH 7.5, …)
Question: How did the “stoichiometry N” value [1] turn out when B3 was run?
Answer: Its value is 2.
